Data taken from publication PMC7913696.
One block for each molecule: values may come before it.

Key:
PrimPol WT (human) [1] = molecular target: T1, PrimPol WT (human) (UniProt Q96LW4)
T1 sequence: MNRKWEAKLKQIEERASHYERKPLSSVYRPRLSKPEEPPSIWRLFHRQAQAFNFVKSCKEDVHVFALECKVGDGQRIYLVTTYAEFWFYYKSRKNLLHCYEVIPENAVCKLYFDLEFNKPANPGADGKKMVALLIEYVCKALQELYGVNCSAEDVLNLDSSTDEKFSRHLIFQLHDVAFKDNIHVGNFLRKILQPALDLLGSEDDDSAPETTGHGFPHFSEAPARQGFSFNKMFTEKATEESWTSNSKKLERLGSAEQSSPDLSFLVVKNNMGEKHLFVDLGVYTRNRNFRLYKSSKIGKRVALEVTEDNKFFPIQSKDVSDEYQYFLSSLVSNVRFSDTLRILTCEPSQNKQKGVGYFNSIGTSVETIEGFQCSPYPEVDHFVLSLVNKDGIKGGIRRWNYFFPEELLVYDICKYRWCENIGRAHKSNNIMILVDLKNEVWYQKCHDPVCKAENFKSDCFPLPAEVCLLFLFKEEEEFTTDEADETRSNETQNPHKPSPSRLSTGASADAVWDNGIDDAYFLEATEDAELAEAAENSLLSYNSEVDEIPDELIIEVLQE

PrimPol WT (human) [2] = molecular target: T1, PrimPol WT (human); remark: listed apart in the source

- primer extension by 150 nM PrimPol on a 25/70-mer primer/template with increasing FL-PolDIP2 (up to 500 nM): percent of DNA substrate extended >3 nt (PrimPol WT (human) [1]): 46%
- filter binding of [α-32P]dCTP (1 μM dCTP, 300 nM primer/template, 600 nM PrimPol and 600 nM FL-PolDIP2, Ca2+, 37°C), against PrimPol alone (PrimPol WT (human) [2]): 3 fold
Molecule: full-length (FL) human PolDIP2 tagged with C-terminal hexa-histidine (from UniProt Q9Y2S7 52-368) (natural protein)

- primer extension by 150 nM PrimPol on a 25/70-mer primer/template with increasing T3-PolDIP2 (from 150 nM): percent of DNA substrate extended >3 nt (PrimPol WT (human) [1]): 32%
B1: T3-PolDIP2 (AA 217–368), C-terminal fragment with the ApaG-like domain (domain or fragment)
chain: LRAWQEKNHPWLELSDVHRETTENIRVTVIPFYMGMREAQNSHVYWWRYCIRLENLDSDVVQLRERHWRIFSLSGTLETVRGRGVVGREPVLSKEQPAFQYSSHVSLQASSGHMWGTFRFERPDGSHFDVRIPPFSLESNKDEKTPPSGLHW
